Assays:
human CXCR4 [1] = biological target: T1, human CXCR4 (human, UniProt P61073 1-352); test: flow cytometry; Batch1
T1 chain: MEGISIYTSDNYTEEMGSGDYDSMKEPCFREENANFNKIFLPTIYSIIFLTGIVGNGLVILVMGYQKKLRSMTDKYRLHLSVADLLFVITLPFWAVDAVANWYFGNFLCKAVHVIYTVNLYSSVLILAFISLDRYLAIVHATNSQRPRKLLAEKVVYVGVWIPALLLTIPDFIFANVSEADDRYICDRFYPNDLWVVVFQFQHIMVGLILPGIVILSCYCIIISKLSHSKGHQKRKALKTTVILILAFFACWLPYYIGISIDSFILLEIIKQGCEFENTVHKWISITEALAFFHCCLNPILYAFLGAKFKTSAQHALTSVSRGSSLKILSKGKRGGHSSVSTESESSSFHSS

human CXCR4 [2] = biological target: T1, human CXCR4; test: flow cytometry; Batch2
human CXCR4 [3] = biological target: T1, human CXCR4; test: flow cytometry
human CXCR4 [4] = biological target: T1, human CXCR4; test: flow cytometry; Batch1
human CXCR4 [5] = biological target: T1, human CXCR4; test: flow cytometry; Batch2
human CXCR4 [6] = biological target: T1, human CXCR4; test: flow cytometry; Batch1
human CXCR4 [7] = biological target: T1, human CXCR4; test: flow cytometry; Batch2
human CXCR4 [8] = biological target: T1, human CXCR4; test: flow cytometry

B1: V62.1-R108H-m43-m38 (antibody, V domains shown)
VH: EVQLLESGGGLVQPGGSLRLSCAASGFTFSSYAMSWVRQAPGKGLEWVSAISGSGGGSTRYADSVKGRFTISRDNSKNTLYLQMNSLRAEDTAVYYCARQGKTRVYGYHWHGYGSTHALDYWGQGTLVTVSS
VL: EIVLTQSPGTLSLSPGERATLSCRASQSVSSSYLAWYQQKPGQAPRLLIYGASSRATGIPDRFSGSGSGTDFTLTISRLEPEDFAVYYCQQWSSDSVTFGQGTKVEIKR
EC50 (human CXCR4 [1]): ~0.6 nM
EC50 (human CXCR4 [2]): ~1.1 nM

B2: V62.1-R108H (antibody, V domains shown)
VH: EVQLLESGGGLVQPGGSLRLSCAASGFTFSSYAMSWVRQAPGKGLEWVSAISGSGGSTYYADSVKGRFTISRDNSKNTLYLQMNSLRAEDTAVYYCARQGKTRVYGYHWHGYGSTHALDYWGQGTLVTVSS
VL: EIVLTQSPGTLSLSPGERATLSCRASQSVSSSYLAWYQQKPGQAPRLLIYGASSRATGIPDRFSGSGSGTDFTLTISRLEPEDFAVYYCQQSDYSYPFTFGQGTKVEIKR
EC50 (human CXCR4 [3]): ~1.8 nM

B3: V62.1-R108H-m80 (antibody, V domains shown)
VH: EVQLLESGGGLVQPGGSLRLSCAASGFTISPYSITWVRQAPGKGLEWVSQINSYNGKTYYADSVKGRFTISRDNSKNTLYLQMNSLRAEDTAVYYCARQGKTRVYGYHWHGYGSTHALDYWGQGTLVTVSS
VL: EIVLTQSPGTLSLSPGERATLSCRASQSVSSSYLAWYQQKPGQAPRLLIYGASSRATGIPDRFSGSGSGTDFTLTISRLEPEDFAVYYCQQSDYSYPFTFGQGTKVEIKR
EC50 (human CXCR4 [4]): ~1.2 nM
EC50 (human CXCR4 [5]): ~1.2 nM

B4: V62.1-R108H-m47-m38 (antibody, V domains shown)
VH: EVQLLESGGGLVQPGGSLRLSCAASGFTFSSYAMSWVRQAPGKGLEWVSAISGSGGTRYADSVKGRFTISRDNSKNTLYLQMNSLRAEDTAVYYCARQGKTRVYGYHWHGYGSTHALDYWGQGTLVTVSS
VL: EIVLTQSPGTLSLSPGERATLSCRASQSVSSSYLAWYQQKPGQAPRLLIYGASSRATGIPDRFSGSGSGTDFTLTISRLEPEDFAVYYCQQWSSDSVTFGQGTKVEIKR
EC50 (human CXCR4 [6]): ~0.7 nM
EC50 (human CXCR4 [7]): ~0.8 nM

B5: V62.1 (antibody, V domains shown)
VH: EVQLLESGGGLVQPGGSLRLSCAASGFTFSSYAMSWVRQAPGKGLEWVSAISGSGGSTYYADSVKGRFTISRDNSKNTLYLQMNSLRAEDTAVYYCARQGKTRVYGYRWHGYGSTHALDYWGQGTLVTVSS
VL: EIVLTQSPGTLSLSPGERATLSCRASQSVSSSYLAWYQQKPGQAPRLLIYGASSRATGIPDRFSGSGSGTDFTLTISRLEPEDFAVYYCQQSDYSYPFTFGQGTKVEIKR
EC50 (human CXCR4 [8]): ~2.2 nM
